Reference: PMC5976803

T1: anti-CLDN-5 ECR mAb clone 1B3
T1 chain 1: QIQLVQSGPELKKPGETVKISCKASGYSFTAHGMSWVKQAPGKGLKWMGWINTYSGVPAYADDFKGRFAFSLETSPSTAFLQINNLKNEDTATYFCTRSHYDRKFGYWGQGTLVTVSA
T1 chain 2: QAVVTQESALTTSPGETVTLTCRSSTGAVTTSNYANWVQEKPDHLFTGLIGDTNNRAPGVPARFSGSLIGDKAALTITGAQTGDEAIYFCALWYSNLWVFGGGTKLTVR


Legend:
Assay in all cases: proteoliposome ELISA
Settings in all cases: chain shown with the change;; parent: est. 1.0; read off a plot
[1] = molecular target: anti-CLDN-5 ECR mAb clone 2B12
[2] = molecular target: anti-CLDN-5 ECR mAb clone 1D1
[3] = molecular target: T1, anti-CLDN-5 ECR mAb clone 1B3
[4] = molecular target: anti-CLDN-5 ECR mAb clone 2B1
anti-CLDN-5 ECR mAb clone 2B1, sequence (chain, as listed by the source, chain 1 of 2): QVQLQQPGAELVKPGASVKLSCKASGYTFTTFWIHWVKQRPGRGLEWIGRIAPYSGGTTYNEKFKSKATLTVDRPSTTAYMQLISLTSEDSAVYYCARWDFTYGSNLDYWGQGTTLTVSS
anti-CLDN-5 ECR mAb clone 2B1, sequence (chain, as listed by the source, chain 2 of 2): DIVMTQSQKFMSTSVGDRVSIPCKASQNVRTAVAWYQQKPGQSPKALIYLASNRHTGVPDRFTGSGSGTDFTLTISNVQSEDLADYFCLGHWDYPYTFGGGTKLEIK

anti-CLDN-5 ECR mAb clone 1D1, sequence (chain, as listed by the source, chain 1 of 2): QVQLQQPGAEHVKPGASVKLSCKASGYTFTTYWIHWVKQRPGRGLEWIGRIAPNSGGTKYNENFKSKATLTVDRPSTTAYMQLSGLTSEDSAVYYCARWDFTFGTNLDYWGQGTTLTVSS
anti-CLDN-5 ECR mAb clone 1D1, sequence (chain, as listed by the source, chain 2 of 2): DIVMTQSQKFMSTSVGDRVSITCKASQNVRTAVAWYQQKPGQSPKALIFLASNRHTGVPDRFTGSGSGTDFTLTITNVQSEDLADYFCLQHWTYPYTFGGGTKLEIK
anti-CLDN-5 ECR mAb clone 2B12, sequence (chain, as listed by the source, chain 1 of 2): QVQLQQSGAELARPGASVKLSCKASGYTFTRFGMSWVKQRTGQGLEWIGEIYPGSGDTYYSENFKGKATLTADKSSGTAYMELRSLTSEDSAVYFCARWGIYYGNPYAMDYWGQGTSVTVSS
anti-CLDN-5 ECR mAb clone 2B12, sequence (chain, as listed by the source, chain 2 of 2): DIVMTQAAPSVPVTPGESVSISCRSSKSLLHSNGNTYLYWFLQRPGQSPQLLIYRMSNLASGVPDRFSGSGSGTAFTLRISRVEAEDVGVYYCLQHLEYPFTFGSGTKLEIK

Binder	ratio to parent [1]	ratio to parent [2]	ratio to parent [3]	ratio to parent [4]
AGIA-tagged human CLDN-5, cell-free synthesized proteoliposome, O00501 Q156A (protein) MGSAALEILGLVLCLVGWGGLILACGLPMWQVTAFLDHNIVTAQTTWKGLWMSCVVQSTGHMQCKVYDSVLALSTEVQAARALTVSAVLLAFVALFVTLAGAQCTTCVAPGPAKARVALTGGVLYLFCGLLALVPLCWFANIVVREFYDPSVPVSAKYELGAALYIGWAATALLMVGGCLLCCGAWVCTGRPDLSFPVKYSAPRRPTATGDYDKKNYV	0.94	0.88	1.2	0.55
AGIA-tagged human CLDN-5, cell-free synthesized proteoliposome, O00501 E146A (protein) MGSAALEILGLVLCLVGWGGLILACGLPMWQVTAFLDHNIVTAQTTWKGLWMSCVVQSTGHMQCKVYDSVLALSTEVQAARALTVSAVLLAFVALFVTLAGAQCTTCVAPGPAKARVALTGGVLYLFCGLLALVPLCWFANIVVRAFYDPSVPVSQKYELGAALYIGWAATALLMVGGCLLCCGAWVCTGRPDLSFPVKYSAPRRPTATGDYDKKNYV	0.36	0.26	0.49	0.25
AGIA-tagged human CLDN-5, cell-free synthesized proteoliposome, O00501 F147A (protein) MGSAALEILGLVLCLVGWGGLILACGLPMWQVTAFLDHNIVTAQTTWKGLWMSCVVQSTGHMQCKVYDSVLALSTEVQAARALTVSAVLLAFVALFVTLAGAQCTTCVAPGPAKARVALTGGVLYLFCGLLALVPLCWFANIVVREAYDPSVPVSQKYELGAALYIGWAATALLMVGGCLLCCGAWVCTGRPDLSFPVKYSAPRRPTATGDYDKKNYV	1.3	1.5	2.4	1.1
AGIA-tagged human CLDN-5, cell-free synthesized proteoliposome, O00501 P150A (protein) MGSAALEILGLVLCLVGWGGLILACGLPMWQVTAFLDHNIVTAQTTWKGLWMSCVVQSTGHMQCKVYDSVLALSTEVQAARALTVSAVLLAFVALFVTLAGAQCTTCVAPGPAKARVALTGGVLYLFCGLLALVPLCWFANIVVREFYDASVPVSQKYELGAALYIGWAATALLMVGGCLLCCGAWVCTGRPDLSFPVKYSAPRRPTATGDYDKKNYV	0.13	0.26	1.8	0.27
AGIA-tagged human CLDN-5, cell-free synthesized proteoliposome, O00501 D149A (protein) MGSAALEILGLVLCLVGWGGLILACGLPMWQVTAFLDHNIVTAQTTWKGLWMSCVVQSTGHMQCKVYDSVLALSTEVQAARALTVSAVLLAFVALFVTLAGAQCTTCVAPGPAKARVALTGGVLYLFCGLLALVPLCWFANIVVREFYAPSVPVSQKYELGAALYIGWAATALLMVGGCLLCCGAWVCTGRPDLSFPVKYSAPRRPTATGDYDKKNYV	0.03	0.06	0.17	0.11
AGIA-tagged human CLDN-5, cell-free synthesized proteoliposome, O00501 P153A (protein) MGSAALEILGLVLCLVGWGGLILACGLPMWQVTAFLDHNIVTAQTTWKGLWMSCVVQSTGHMQCKVYDSVLALSTEVQAARALTVSAVLLAFVALFVTLAGAQCTTCVAPGPAKARVALTGGVLYLFCGLLALVPLCWFANIVVREFYDPSVAVSQKYELGAALYIGWAATALLMVGGCLLCCGAWVCTGRPDLSFPVKYSAPRRPTATGDYDKKNYV	0.08	0.13	0.19	0.14

Next, values leading:

ratio to parent [1]	ratio to parent [2]	ratio to parent [3]	ratio to parent [4]	Binder
0.03	0.1	0.75	0.14	AGIA-tagged human CLDN-5, cell-free synthesized proteoliposome, O00501 S151A (protein) MGSAALEILGLVLCLVGWGGLILACGLPMWQVTAFLDHNIVTAQTTWKGLWMSCVVQSTGHMQCKVYDSVLALSTEVQAARALTVSAVLLAFVALFVTLAGAQCTTCVAPGPAKARVALTGGVLYLFCGLLALVPLCWFANIVVREFYDPAVPVSQKYELGAALYIGWAATALLMVGGCLLCCGAWVCTGRPDLSFPVKYSAPRRPTATGDYDKKNYV
0.75	1.3	0.17	1.1	AGIA-tagged human CLDN-5, cell-free synthesized proteoliposome, O00501 Y148A (protein) MGSAALEILGLVLCLVGWGGLILACGLPMWQVTAFLDHNIVTAQTTWKGLWMSCVVQSTGHMQCKVYDSVLALSTEVQAARALTVSAVLLAFVALFVTLAGAQCTTCVAPGPAKARVALTGGVLYLFCGLLALVPLCWFANIVVREFADPSVPVSQKYELGAALYIGWAATALLMVGGCLLCCGAWVCTGRPDLSFPVKYSAPRRPTATGDYDKKNYV
0.39	1.6	0.25	1.2	AGIA-tagged human CLDN-5, cell-free synthesized proteoliposome, O00501 V152A (protein) MGSAALEILGLVLCLVGWGGLILACGLPMWQVTAFLDHNIVTAQTTWKGLWMSCVVQSTGHMQCKVYDSVLALSTEVQAARALTVSAVLLAFVALFVTLAGAQCTTCVAPGPAKARVALTGGVLYLFCGLLALVPLCWFANIVVREFYDPSAPVSQKYELGAALYIGWAATALLMVGGCLLCCGAWVCTGRPDLSFPVKYSAPRRPTATGDYDKKNYV
0.87	1.3	1.2	1.1	AGIA-tagged human CLDN-5, cell-free synthesized proteoliposome, O00501 V154A (protein) MGSAALEILGLVLCLVGWGGLILACGLPMWQVTAFLDHNIVTAQTTWKGLWMSCVVQSTGHMQCKVYDSVLALSTEVQAARALTVSAVLLAFVALFVTLAGAQCTTCVAPGPAKARVALTGGVLYLFCGLLALVPLCWFANIVVREFYDPSVPASQKYELGAALYIGWAATALLMVGGCLLCCGAWVCTGRPDLSFPVKYSAPRRPTATGDYDKKNYV
0.99	0.86	1.3	0.84	AGIA-tagged human CLDN-5, cell-free synthesized proteoliposome, O00501 S155A (protein) MGSAALEILGLVLCLVGWGGLILACGLPMWQVTAFLDHNIVTAQTTWKGLWMSCVVQSTGHMQCKVYDSVLALSTEVQAARALTVSAVLLAFVALFVTLAGAQCTTCVAPGPAKARVALTGGVLYLFCGLLALVPLCWFANIVVREFYDPSVPVAQKYELGAALYIGWAATALLMVGGCLLCCGAWVCTGRPDLSFPVKYSAPRRPTATGDYDKKNYV
